B1: glmS ribozyme (parent)
chain: AUAAAAGCGCCAGAACUACAGAAAUGUAGUUGACGAGGAGGAGGUUUAUCGAAUUUUCGGCGGAUGCCUCCAAA

± gives the standard error. Variants at the floor of the assay were thinned out.

Conditions in all cases: with glucosamine-6-phosphate
In data set [1] the parent is B1. The data set can be described thus: self-cleavage kobs at 40 uM GlcN6P; higher = faster cleavage; RNA array. The procedure, abridged:
(§1)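 Barcoded ribozyme variants on sequenced MiSeq chips were transcribed in situ by E. coli RNA polymerase and followed at 37 °C through a hybridised Cy3 probe. Glucosamine-6-phosphate at 40 μM to 10 mM in HEPES/KCl/Mg(OAc)2 buffer was flowed in, and tiles were imaged over ~14 h. Signals were normalised to baseline and to non-cleaving reference variants, and per-tile medians were fit to one- or two-exponential decays to give kobs. Weighted Michaelis–Menten fits across concentrations gave kcat and KM.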

In data set [2] the parent is B1. The data set is described as follows: self-cleavage kobs at 640 uM GlcN6P; higher = faster cleavage; RNA array. The procedure, abridged: as §1
Variants of B1 are the subject of data set [3]. The data set can be described thus: self-cleavage kobs at 2500 uM GlcN6P; higher = faster cleavage; RNA array. In a few lines:
as §1

In data set [4] the parent is B1. The data set is described as follows: self-cleavage kobs at 160 uM GlcN6P; higher = faster cleavage; RNA array. In a few lines: as §1
Variants of B1 are the subject of data set [5]. The data set is described as follows: self-cleavage kobs at 10000 uM GlcN6P; higher = faster cleavage; RNA array. The procedure, abridged:
as §1

This note sets out measurements from the supplement of paper PMC7125110.

Take AUAAAAGCGCCAGAACUACAGAAAUGUAGUUGACGAGGAGGAGGUUUAUGGAAUUUUCGGCGCAUGCCUCUAAA: the “self-cleavage kobs at 40 uM GlcN6P” value with glucosamine-6-phosphate [1] stood at 7.02e-05 ± 2.9e-05 s⁻¹.
For the variant AUAAAAGCGCCUGAACUACAGAAAUGUAGUUGACGAGGAGGAGGUUUAUCGAAUUUCCCGCGGAUGCCUCCAAA, in the data set with glucosamine-6-phosphate [1], the “self-cleavage kobs at 40 uM GlcN6P” value is under 1e-05 s⁻¹. Moreover, the “self-cleavage kobs at 640 uM GlcN6P” value in the data set with glucosamine-6-phosphate [2] is under 1e-05 s⁻¹. For the same variant, the “self-cleavage kobs at 2500 uM GlcN6P” value with glucosamine-6-phosphate [3] is under 1e-05 s⁻¹.
As to AUAAAAGCGUCAGAACUACAGAAAUGUAGUUGACGAGGAGGAGGUUUAUCGAAUUUUCGGCGGAAGCCUCCAAA, the “self-cleavage kobs at 40 uM GlcN6P” value with glucosamine-6-phosphate [1] is under 1e-05 s⁻¹. Further, the “self-cleavage kobs at 160 uM GlcN6P” value with glucosamine-6-phosphate [4] was under 1e-05 s⁻¹. Besides, the “self-cleavage kobs at 640 uM GlcN6P” value with glucosamine-6-phosphate [2] is under 1e-05 s⁻¹. Moreover, in the data set with glucosamine-6-phosphate [3], the “self-cleavage kobs at 2500 uM GlcN6P” value is under 1e-05 s⁻¹. In addition, in the data set with glucosamine-6-phosphate [5], the “self-cleavage kobs at 10000 uM GlcN6P” value is under 1e-05 s⁻¹.
On to AUAAAAGCGCCAGAACUACAGAAAUGUAGUUGACGAGGAGGAGGUUUAUCGAAUUUUCGGCGGCUUCGUCCAAA, for which the “self-cleavage kobs at 40 uM GlcN6P” value with glucosamine-6-phosphate [1] is under 1e-05 s⁻¹. Moreover, the “self-cleavage kobs at 640 uM GlcN6P” value in the data set with glucosamine-6-phosphate [2] is under 1e-05 s⁻¹. Further, in the data set with glucosamine-6-phosphate [3], the “self-cleavage kobs at 2500 uM GlcN6P” value was under 1e-05 s⁻¹.
Consider AUAAAAGCGCCAGGCCUACAGAAAUGUAGUUGACGAGGAGUAGGUUUAUCGAAUUUUUGGCGGAUGCCUCCAAA, for which the “self-cleavage kobs at 40 uM GlcN6P” value with glucosamine-6-phosphate [1] was under 1e-05 s⁻¹. The “self-cleavage kobs at 10000 uM GlcN6P” value in the data set with glucosamine-6-phosphate [5] is under 1e-05 s⁻¹.
Take AUAAAAGCGCCAGAACUACAGAAAUGUAGUUGACGAGGAGGAGGUUUUUUGAAUUUUCGGCGGAUGCCUCCAAA: the “self-cleavage kobs at 40 uM GlcN6P” value in the data set with glucosamine-6-phosphate [1] is under 1e-05 s⁻¹. The “self-cleavage kobs at 160 uM GlcN6P” value in the data set with glucosamine-6-phosphate [4] is under 1e-05 s⁻¹. The “self-cleavage kobs at 640 uM GlcN6P” value with glucosamine-6-phosphate [2] was under 1e-05 s⁻¹. Besides, the “self-cleavage kobs at 2500 uM GlcN6P” value in the data set with glucosamine-6-phosphate [3] is under 1e-05 s⁻¹. Moreover, the “self-cleavage kobs at 10000 uM GlcN6P” value in the data set with glucosamine-6-phosphate [5] is under 1e-05 s⁻¹.
Turning to AUAAAAGCGCCAGAACUACAGAAAUGUAGUUGACGAGGAGGCGGUUUAUCGAAUUUUCGGCGGAUCCCUCCAAA, in the data set with glucosamine-6-phosphate [1], the “self-cleavage kobs at 40 uM GlcN6P” value is under 1e-05 s⁻¹. Also, in the data set with glucosamine-6-phosphate [4], the “self-cleavage kobs at 160 uM GlcN6P” value is under 1e-05 s⁻¹. Further, in the data set with glucosamine-6-phosphate [2], the “self-cleavage kobs at 640 uM GlcN6P” value is under 1e-05 s⁻¹. Further, in the data set with glucosamine-6-phosphate [3], the “self-cleavage kobs at 2500 uM GlcN6P” value is under 1e-05 s⁻¹. For the same variant, the “self-cleavage kobs at 10000 uM GlcN6P” value with glucosamine-6-phosphate [5] was under 1e-05 s⁻¹.
On to AUAAAGGCGCGAGAACUACAGAAAUGUAGUUGACGAGGAGGUGGUUUAUCGAAUUUUCGGCGGAUGCCUCCAAA, for which, in the data set with glucosamine-6-phosphate [1], the “self-cleavage kobs at 40 uM GlcN6P” value was under 1e-05 s⁻¹. Further, the “self-cleavage kobs at 2500 uM GlcN6P” value with glucosamine-6-phosphate [3] was under 1e-05 s⁻¹. Besides, in the data set with glucosamine-6-phosphate [5], the “self-cleavage kobs at 10000 uM GlcN6P” value is under 1e-05 s⁻¹.
Take AUAAAAGCGCCAGUAGUACAGAAAUGUAGUUUACGAGGAGGAGAUUUCUCGAAUUUUCGGUGGAUGCCGCCAAA: in the data set with glucosamine-6-phosphate [1], the “self-cleavage kobs at 40 uM GlcN6P” value was under 1e-05 s⁻¹.
For AUAAAAGCGCCAGAACUACAGAAAUGUAGUUGACGAGGAGGAGGUUUAUCGAAGUGUCGGCGAAUGUCUCCAAA, the “self-cleavage kobs at 40 uM GlcN6P” value with glucosamine-6-phosphate [1] is under 1e-05 s⁻¹. The “self-cleavage kobs at 10000 uM GlcN6P” value with glucosamine-6-phosphate [5] was under 1e-05 s⁻¹.
As for AUAAAAGCGUCAGAACUACAGAAAUGUAGUUGACGAGGAGGAGGUUUAUCGAAUUUUCCGCGGAUGCAUCCAAA, the “self-cleavage kobs at 40 uM GlcN6P” value with glucosamine-6-phosphate [1] was under 1e-05 s⁻¹. Also, the “self-cleavage kobs at 10000 uM GlcN6P” value with glucosamine-6-phosphate [5] is under 1e-05 s⁻¹.
For the variant AUAAAUGCGCCAGAACUACAGAAAUGUAGUUGACGACGAGCAGGUUCUUCGAAUUUUCUGCGGAUGCCUCCAAA, the “self-cleavage kobs at 40 uM GlcN6P” value with glucosamine-6-phosphate [1] was under 1e-05 s⁻¹. The “self-cleavage kobs at 10000 uM GlcN6P” value with glucosamine-6-phosphate [5] is under 1e-05 s⁻¹.
Regarding AUAAAAGCGCCAGAACUACAGAAAUGUAGUUGACGAGGAGGCGGUUUAUCGAUUUUUCGGCGGAUGCCUCCAAA, the “self-cleavage kobs at 40 uM GlcN6P” value with glucosamine-6-phosphate [1] is under 1e-05 s⁻¹. The “self-cleavage kobs at 160 uM GlcN6P” value with glucosamine-6-phosphate [4] is under 1e-05 s⁻¹. The “self-cleavage kobs at 640 uM GlcN6P” value with glucosamine-6-phosphate [2] was under 1e-05 s⁻¹.
